Laboratory results as given in IntAct's records for PubMed 28017832.

B1: Vacuolar protein sorting-associated protein 33B (Homo sapiens), Q9H267 (parent)
chain: MAFPHRPDAPELPDFSMLKRLARDQLIYLLEQLPGKKDLFIEADLMSPLDRIANVSILKQHEVDKLYKVENKPALSSNEQLCFLVRPRIKNMRYIASLVNADKLAGRTRKYKVIFSPQKFYACEMVLEEEGIYGDVSCDEWAFSLLPLDVDLLSMELPEFFRDYFLEGDQRWINTVAQALHLLSTLYGPFPNCYGIGRCAKMAYELWRNLEEEEDGETKGRRPEIGHIFLLDRDVDFVTALCSQVVYEGLVDDTFRIKCGSVDFGPEVTSSDKSLKVLLNAEDKVFNEIRNEHFSNVFGFLSQKARNLQAQYDRRRGMDIKQMKNFVSQELKGLKQEHRLLSLHIGACESIMKKKTKQDFQELIKTEHALLEGFNIRESTSYIEEHIDRQVSPIESLRLMCLLSITENGLIPKDYRSLKTQYLQSYGPEHLLTFSNLRRAGLLTEQAPGDTLTAVESKVSKLVTDKAAGKITDAFSSLAKRSNFRAISKKLNLIPRVDGEYDLKVPRDMAYVFGGAYVPLSCRIIEQVLERRSWQGLDEVVRLLNCSDFAFTDMTKEDKASSESLRLILVVFLGGCTFSEISALRFLGREKGYRFIFLTTAVTNSARLMEAMSEVKA
partner: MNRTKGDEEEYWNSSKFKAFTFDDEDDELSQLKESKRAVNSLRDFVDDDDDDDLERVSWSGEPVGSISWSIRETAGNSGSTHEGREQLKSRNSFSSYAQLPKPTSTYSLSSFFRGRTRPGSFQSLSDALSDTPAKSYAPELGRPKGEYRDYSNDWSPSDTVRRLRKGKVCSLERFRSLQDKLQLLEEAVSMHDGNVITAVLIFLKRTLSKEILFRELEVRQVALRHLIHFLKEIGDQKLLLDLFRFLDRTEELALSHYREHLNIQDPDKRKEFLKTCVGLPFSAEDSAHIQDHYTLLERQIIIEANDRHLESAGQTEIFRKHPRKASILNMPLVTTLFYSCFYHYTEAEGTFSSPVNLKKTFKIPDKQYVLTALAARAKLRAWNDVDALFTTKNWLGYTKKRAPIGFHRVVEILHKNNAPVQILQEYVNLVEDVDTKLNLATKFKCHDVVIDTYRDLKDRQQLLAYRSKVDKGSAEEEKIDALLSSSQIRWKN

Variants of: B1
Details: with spe39_human VIPAS39, Q9H9C1

effect of a mutation on the interaction | Variant
decreasing interaction strength | G131E
